Measurements taken from article PMC10680704.

Target: IGF2R ectodomain, recombinant, AlexaFlour488-labeled (UniProt P11717)

Row | EC50 of mCherry uptake by K562 cells [nM] | Substance
1 | 16 | G2 mCherry GELYTAC (IGF2 E6R, F19L, S39P), recombinant
2 | 101 | mCherry GELYTAC (original, wild-type IGF2), recombinant
